Measurements taken from paper PMC314469, “Protein Interaction Networks by Proteome Peptide Scanning” (PLoS Biology, 2004).
Values belong to the binder of their own block, whether it stands above or below them.

What was measured:
[1] = target: T1, amphyphisin SH3 (AMPH_HUMAN), P49418; assay: SPOT array
T1 chain: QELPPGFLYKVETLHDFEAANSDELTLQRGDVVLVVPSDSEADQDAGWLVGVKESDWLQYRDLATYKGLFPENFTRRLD

[2] = target: endophilin SH3 (SH3G2_HUMAN), Q99962; assay: SPOT array

B1: Q9Y358 352-365 (peptide)
chain: ARPELRRPGVQGIP
- normalised SPOT signal, Boehringer light units (BLU); mean over the file's lines of this peptide [1]: 25.7
- normalised SPOT signal, Boehringer light units (BLU); mean over the file's lines of this peptide [2]: 73.8

B2: Q9C0C1 1172-1185 (peptide)
chain: PDVWLRRPSTHTSG
- normalised SPOT signal, Boehringer light units (BLU); mean over the file's lines of this peptide [1]: 60.1
- normalised SPOT signal, Boehringer light units (BLU); mean over the file's lines of this peptide [2]: 242

B3: Q9UGB8 1078-1091 (peptide)
chain: PDPGFLRPQRAALY
- normalised SPOT signal, Boehringer light units (BLU); mean over the file's lines of this peptide [1]: 986
- normalised SPOT signal, Boehringer light units (BLU); mean over the file's lines of this peptide [2]: 310

B4: Q9BYN7 703-717 (peptide)
chain: PEAVPGKPPFAEPD
- normalised SPOT signal, Boehringer light units (BLU); mean over the file's lines of this peptide [1]: 71.4
- normalised SPOT signal, Boehringer light units (BLU); mean over the file's lines of this peptide [2]: 63.8

B6: Q9P281 735-748 (peptide)
chain: ARRGPGRPRKRKHS
- normalised SPOT signal, Boehringer light units (BLU); mean over the file's lines of this peptide [1]: 121
- normalised SPOT signal, Boehringer light units (BLU); mean over the file's lines of this peptide [2]: 231

B7: P01031 668-681 (peptide)
chain: PSKEILRPRRTLQK
- normalised SPOT signal, Boehringer light units (BLU); mean over the file's lines of this peptide [1]: 1040
- normalised SPOT signal, Boehringer light units (BLU); mean over the file's lines of this peptide [2]: 181

B8: Q13078 876-889 (peptide)
chain: PSPAPPRPARVPAH
- normalised SPOT signal, Boehringer light units (BLU); mean over the file's lines of this peptide [1]: 2020
- normalised SPOT signal, Boehringer light units (BLU); mean over the file's lines of this peptide [2]: 3100

B13: Q9Y215 243-257 (peptide)
chain: PSTLPRRPPVPSGQ
- normalised SPOT signal, Boehringer light units (BLU); mean over the file's lines of this peptide [1]: 309
- normalised SPOT signal, Boehringer light units (BLU); mean over the file's lines of this peptide [2]: 2140

B14: Q9UQ51 6-19 (peptide)
chain: PAVPPGRPRRGSLP
- normalised SPOT signal, Boehringer light units (BLU); mean over the file's lines of this peptide [1]: 2070
- normalised SPOT signal, Boehringer light units (BLU); mean over the file's lines of this peptide [2]: 7480

B15: O00456 575-588 (peptide)
chain: PAQLPRRPAQRPGE
- normalised SPOT signal, Boehringer light units (BLU); mean over the file's lines of this peptide [1]: 29.4
- normalised SPOT signal, Boehringer light units (BLU); mean over the file's lines of this peptide [2]: 28.3

B16: Q02080 268-282 (peptide)
chain: PAAPPRRPPQSASS
- normalised SPOT signal, Boehringer light units (BLU); mean over the file's lines of this peptide [1]: 3320
- normalised SPOT signal, Boehringer light units (BLU); mean over the file's lines of this peptide [2]: 1450

B17: Q9H5N7 170-183 (peptide)
chain: AARGLRRPEDSSRK
- normalised SPOT signal, Boehringer light units (BLU); mean over the file's lines of this peptide [1]: 18
- normalised SPOT signal, Boehringer light units (BLU); mean over the file's lines of this peptide [2]: 3.6

B18: Q9P2D1 825-838 (peptide)
chain: PSAKPRRPQDKSQG
- normalised SPOT signal, Boehringer light units (BLU); mean over the file's lines of this peptide [1]: 38.3
- normalised SPOT signal, Boehringer light units (BLU); mean over the file's lines of this peptide [2]: 78.4

B20: Q9BR83 136-149 (peptide)
chain: PAPRIKRPRLQVVK
- normalised SPOT signal, Boehringer light units (BLU); mean over the file's lines of this peptide [1]: 70.5
- normalised SPOT signal, Boehringer light units (BLU); mean over the file's lines of this peptide [2]: 27.2

B21: Q9HCM5 24-37 (peptide)
chain: PAARPRRPPTTLPP
- normalised SPOT signal, Boehringer light units (BLU); mean over the file's lines of this peptide [1]: 109
- normalised SPOT signal, Boehringer light units (BLU); mean over the file's lines of this peptide [2]: 7270

B22: Q8TF74 224-238 (peptide)
chain: PAPPPVKPPPSPVN
- normalised SPOT signal, Boehringer light units (BLU); mean over the file's lines of this peptide [1]: 43.7
- normalised SPOT signal, Boehringer light units (BLU); mean over the file's lines of this peptide [2]: 182

B23: Q96S08 21-34 (peptide)
chain: PAASPRRPAPRTGP
- normalised SPOT signal, Boehringer light units (BLU); mean over the file's lines of this peptide [1]: 21.1
- normalised SPOT signal, Boehringer light units (BLU); mean over the file's lines of this peptide [2]: 48.9

B24: Q9UKQ9 224-237 (peptide)
chain: PSSRPRRPAVYTSV
- normalised SPOT signal, Boehringer light units (BLU); mean over the file's lines of this peptide [1]: 39.7
- normalised SPOT signal, Boehringer light units (BLU); mean over the file's lines of this peptide [2]: 260

B25: Q9UIC6 53-66 (peptide)
chain: ARRLLVRPARLRRH
- normalised SPOT signal, Boehringer light units (BLU); mean over the file's lines of this peptide [1]: 1340
- normalised SPOT signal, Boehringer light units (BLU); mean over the file's lines of this peptide [2]: 67.4

B26: Q9ULT6 397-410 (peptide)
chain: PAHPFRRPKLSGRS
- normalised SPOT signal, Boehringer light units (BLU); mean over the file's lines of this peptide [1]: 49.5
- normalised SPOT signal, Boehringer light units (BLU); mean over the file's lines of this peptide [2]: 64.8

B27: Q9NQ45 25-38 (peptide)
chain: PASALPRPPRLSGS
- normalised SPOT signal, Boehringer light units (BLU); mean over the file's lines of this peptide [1]: 4470
- normalised SPOT signal, Boehringer light units (BLU); mean over the file's lines of this peptide [2]: 92.9

B29: Q9UPV8 1233-1246 (peptide)
chain: PATAPARPLRLPSG
- normalised SPOT signal, Boehringer light units (BLU); mean over the file's lines of this peptide [1]: 11300
- normalised SPOT signal, Boehringer light units (BLU); mean over the file's lines of this peptide [2]: 7710

B30: Q9ULT2 697-711 (peptide)
chain: PAVPPARPPTAQEV
- normalised SPOT signal, Boehringer light units (BLU); mean over the file's lines of this peptide [1]: 92
- normalised SPOT signal, Boehringer light units (BLU); mean over the file's lines of this peptide [2]: 509

B33: Q9UGX2 21-34 (peptide)
chain: PESEIERPERLTAA
- normalised SPOT signal, Boehringer light units (BLU); mean over the file's lines of this peptide [1]: 124
- normalised SPOT signal, Boehringer light units (BLU); mean over the file's lines of this peptide [2]: 281

B35: Q9H7P7 809-822 (peptide)
chain: PASAFDRPARTRGQ
- normalised SPOT signal, Boehringer light units (BLU); mean over the file's lines of this peptide [1]: 2010
- normalised SPOT signal, Boehringer light units (BLU); mean over the file's lines of this peptide [2]: 98.4

B36: Q9UK39 24-37 (peptide)
chain: PAPGLRRPLSPPAA
- normalised SPOT signal, Boehringer light units (BLU); mean over the file's lines of this peptide [1]: 57.1
- normalised SPOT signal, Boehringer light units (BLU); mean over the file's lines of this peptide [2]: 104

B39: Q9NUE8 153-166 (peptide)
chain: PEDAPKRPKEAAPD
- normalised SPOT signal, Boehringer light units (BLU); mean over the file's lines of this peptide [1]: 19.3
- normalised SPOT signal, Boehringer light units (BLU); mean over the file's lines of this peptide [2]: 23.2

B40: Q8WZ58 338-351 (peptide)
chain: PAPRLRRPGRVRPH
- normalised SPOT signal, Boehringer light units (BLU); mean over the file's lines of this peptide [1]: 71.5
- normalised SPOT signal, Boehringer light units (BLU); mean over the file's lines of this peptide [2]: 71.1

B41: Q9BR43 91-104 (peptide)
chain: PSYHILRPSRNQDL
- normalised SPOT signal, Boehringer light units (BLU); mean over the file's lines of this peptide [1]: 412
- normalised SPOT signal, Boehringer light units (BLU); mean over the file's lines of this peptide [2]: 426

More lines, now with the values ahead:

- normalised SPOT signal, Boehringer light units (BLU); mean over the file's lines of this peptide [1]: 635
- normalised SPOT signal, Boehringer light units (BLU); mean over the file's lines of this peptide [2]: 6240
B5: Q13480 337-351 (peptide)
chain: PDIPPPRPPKPHPA

- normalised SPOT signal, Boehringer light units (BLU); mean over the file's lines of this peptide [1]: 599
- normalised SPOT signal, Boehringer light units (BLU); mean over the file's lines of this peptide [2]: 1720
B9: O60593 320-334 (peptide)
chain: PALSPTRPPKKPLD

- normalised SPOT signal, Boehringer light units (BLU); mean over the file's lines of this peptide [1]: 35.9
- normalised SPOT signal, Boehringer light units (BLU); mean over the file's lines of this peptide [2]: 52.2
B10: P55060 21-34 (peptide)
chain: PDPAIRRPAEKFLE

- normalised SPOT signal, Boehringer light units (BLU); mean over the file's lines of this peptide [1]: 32.1
- normalised SPOT signal, Boehringer light units (BLU); mean over the file's lines of this peptide [2]: 95.5
B11: Q13393 385-398 (peptide)
chain: PEIFLKRPVVEGNR

- normalised SPOT signal, Boehringer light units (BLU); mean over the file's lines of this peptide [1]: 24.5
- normalised SPOT signal, Boehringer light units (BLU); mean over the file's lines of this peptide [2]: 12.2
B12: Q14289 406-419 (peptide)
chain: PDETLRRPGGPQYG

- normalised SPOT signal, Boehringer light units (BLU); mean over the file's lines of this peptide [1]: 13
- normalised SPOT signal, Boehringer light units (BLU); mean over the file's lines of this peptide [2]: 27.2
B19: P16989 219-232 (peptide)
chain: ARNQLRRPQYRPQY

- normalised SPOT signal, Boehringer light units (BLU); mean over the file's lines of this peptide [1]: 56.7
- normalised SPOT signal, Boehringer light units (BLU); mean over the file's lines of this peptide [2]: 45.8
B28: Q14184 101-115 (peptide)
chain: PARPPAKPPEDEPD

- normalised SPOT signal, Boehringer light units (BLU); mean over the file's lines of this peptide [1]: 16.5
- normalised SPOT signal, Boehringer light units (BLU); mean over the file's lines of this peptide [2]: 108
B31: Q92542 409-422 (peptide)
chain: PAVILRRPNQSQPL

- normalised SPOT signal, Boehringer light units (BLU); mean over the file's lines of this peptide [1]: 105
- normalised SPOT signal, Boehringer light units (BLU); mean over the file's lines of this peptide [2]: 196
B32: P78325 461-474 (peptide)
chain: PAGELSRPKKDMSD

- normalised SPOT signal, Boehringer light units (BLU); mean over the file's lines of this peptide [1]: 152
- normalised SPOT signal, Boehringer light units (BLU); mean over the file's lines of this peptide [2]: 143
B34: Q99941 295-308 (peptide)
chain: PAPSLPRPERKSIV

- normalised SPOT signal, Boehringer light units (BLU); mean over the file's lines of this peptide [1]: 24.4
- normalised SPOT signal, Boehringer light units (BLU); mean over the file's lines of this peptide [2]: 62.3
B37: Q16378 41-55 (peptide)
chain: PDQGPQRPPPEGLL

- normalised SPOT signal, Boehringer light units (BLU); mean over the file's lines of this peptide [1]: 869
- normalised SPOT signal, Boehringer light units (BLU); mean over the file's lines of this peptide [2]: 1390
B38: Q16623 232-245 (peptide)
chain: PSLTPRRPSSTRAR

- normalised SPOT signal, Boehringer light units (BLU); mean over the file's lines of this peptide [1]: 548
- normalised SPOT signal, Boehringer light units (BLU); mean over the file's lines of this peptide [2]: 1370
B42: P51511 326-340 (peptide)
chain: PDHRPPRPPQPPPP
